Where two headings read alike, the source gives them in different places. Each block holds one binder with its values, some of them ahead of it.
B1: Panx[263-541], subunit of recombinant SFiNX (domain or fragment)
chain: ASSQNESSKERKLRDTELDYVPVRPDEHFIRPIKFSNLIERRPPQVEFNTVNLSKADKRSLAVARAELVLEQIQQKANKEEPPEFHMVDTICKLPVNESFRNQDCFENPSPICNNMNVVYKFNSTPGTRIDLSKWGLETVPEATKRLLRLLGIDVARLKELQSTVKPSQRILKLKKEQLEQGLAPTEEQETATLYKNAATQTERRTATRDAGTQVRLESKLNGAFWQNPHFDPMNLTQHQSNVMLALQEIYQTLPSATMAVKLSRALAPALAIIKGRQP
B2: Drosophila melanogaster LC8 (residues 1-89), co-expressed with Panx peptides (natural protein)
chain: MSDRKAVIKNADMSEEMQQDAVDCATQALEKYNIEKDIAAYIKKEFDKKYNPTWHCIVGRNFGSYVTHETRHFIYFYLGQVAILLFKSG
B3: His6-LC8, subunit of recombinant SFiNX (natural protein)
chain: B2 chain
B4: recombinant SFiNX consisting of Panx[263-541], Nxf2[541-841], Nxt1, and LC8 (complex)
chain 1: B1 chain
chain 2: LPSEYVRAVKEVFPQLTTLDGVDLQTNPGQSLQKNFLCDTGAYELVGAFLENYLREFENDEFRHNLYKYYSENSIFTLTCNYNVVQNHQTPKILQRLSKYNRHARNLRNKDYSKASDGVFFGCTYIVEILLQLPRVTHDFHSLQTDVMHYNGKGAVIYVAGLLRDEPPSTRNGHGSKTDIGGVLLGFSRQFVVTFDEANLGLGKRARRLKIANERLHITNPSKTAIRNAFSVNFPDPSERQAEEDSLDVKDHKLLLFQEVTGLISTWVTSIVEEADWDFERALKLFIQKNADHEIPDLAFA
chain 3: […]
chain 4: B2 chain
B5: Nxf2[541-841], subunit of recombinant SFiNX (domain or fragment)
chain: B4 chain 2

How the values were obtained:
[1] = biological target: B5; test: SEC-MALS
SEC-MALS [2] = biological target: the molecule itself; test: SEC-MALS
[3] = biological target: B1; test: SEC-MALS
SEC-MALS [4] = biological target: the molecule itself; test: SEC-MALS; remark: listed apart in the source
[5] = biological target: B2; test: SEC-MALS
[6] = biological target: Drosophila melanogaster LC8 (residues 1-89), expressed in isolation for ITC (Drosophila melanogaster, UniProt Q24117 1-89); test: ITC
[7] = biological target: Nxt1, subunit of recombinant SFiNX (Drosophila, UniProt Q9V3H8 1-133); test: SEC-MALS

Binder: B1
binding result [1]: binds

Binder: B2
stoichiometry N (SEC-MALS [2]): 2

Binder: B3
binding result [3]: binds

Binder: B4
stoichiometry N (SEC-MALS [4]): 2

stoichiometry N [5]: 2 Panx peptides per one LC8 homodimer | Kd [6]: ~140 nM
Binder: RTATRDAGTQVRLE [Panx peptide residues 467-480 (Panx2), LC8 binding site #2]

stoichiometry N [5]: 2 Panx peptides per one LC8 homodimer | Kd [6]: ~75 nM
Binder: TLYKNAATQTER [Panx peptide residues 455-466 (Panx1), LC8 binding site #1]

Binder: B5
binding result [7]: binds

stoichiometry N [5]: 2 Panx peptides per two LC8 homodimers
Binder: TLYKNAATQTERRTATRDAGTQVRLE [Panx peptide residues 455-480 (Panx1+2), both LC8 binding sites]

Source: paper doi:10.1101/2021.01.08.425619 (bioRxiv, 2021)
